Reference: the PETadex activity labels (doi:10.1021/bi00096a018)
Numbering of substitutions follows the chain as printed.

B1: unnamed (protein)
chain: MRPPWYPLHTPSLAFPLLFLLLSLLGGGARAEGREDPQLLVRVRGGQLRGIRLKAPGGPVSAFLGIPFAEPPVGSRRFMPPEPKRPWSGVLDATTFQNVCYQNVNTLYPGFEGTEMWNPNRELSEDCLYLNVWTPYPRPASPTPVLIWIYGGGFQSGAASLDVYDGRFLAQVEGAVLVSMNYRVGTFGFLALPGSREAPGNVGLLDQRLALQWVQENIAAFGGDPMSVTLFGESAGAASVGMHILSLPSRSLFHRAVLQSGTPNGPWATVSAGEARRRATLLARLVGCPPGGAGGNDTELIACLRTRPAQDLVDHEAHVLPQESIFRFSFVPVVDGDFLSDTPEALINTGDFQDLQVLVGVVKDEGSYFLVYGVPGFSKDNESLISRAQFLAGVRIGVPQASDLAAEAVVLHYTDWLHPEDPTHLRDAMSAVVGDHNVVCPVAQLAGRLAAQGARVYAYIFEHRASTLTWPLWMGVPHGYEIEFIFGLPLDPSLNYTTEERIFAQRLMKYWTNFARTGDPNDPRDSKSPQWPPYTTAAQQYVSLNLKPLEVRRGLRAQTCAFWNRFLPKLLSATDTLDEAERQWKAEFHRWSSYMVHWKNQFDHYSKQERCSDL
B2: unnamed (protein)
chain: B1 chain with N103Y, N105D, Q155Y, A317W, F369G
B3: unnamed (protein)
chain: B1 chain with N103Y, N105D, Q155Y, A317W, F326L
B4: unnamed (protein)
chain: B1 chain with N103Q, N105D, Q155Y, A317R
B5: unnamed (protein)
chain: B1 chain with N103Y, N105D, Q155Y, A317W, F328I
B6: unnamed (protein)
chain: B1 chain with N103Y, Q155Y, A317W
B7: unnamed (protein)
chain: B1 chain with N105D, A317R
B8: unnamed (protein)
chain: B1 chain with A317R
B9: unnamed (protein)
chain: B1 chain with N103Y, N105D, Q155Y, A317W, R327S

Substrate: Acetylcholine
Settings: pH 7; 22 °C

Protein	Km	kcat	kcat/Km
B1	2100 µM	2500 s⁻¹	
B2	75 µM	383 s⁻¹	
B3	49 µM	733 s⁻¹	
B4	700 µM	2670 s⁻¹	
B5	357000 µM	250 s⁻¹	700 M⁻¹ s⁻¹
B6	1300 µM	1400 s⁻¹	
B7	850 µM	3500 s⁻¹	
B8	6100 µM	2330 s⁻¹	
B9	50 µM	1530 s⁻¹	
